Assay results taken from US20120177664A1.

Biological target: A beta oligomer (synthetic A beta1-40, HCl form, 0.1 mg/ml in PBS, incubated at 37 degrees C for one hour) (UniProt P05067)
Assay: SPR (Biacore 3000)

Kd: 2.91 nM
koff: 0.000168 s⁻¹
kon: 57800 M⁻¹ s⁻¹
Substance: Anti-A beta antibody 6E10
